T1: mouse ApoE (mouse, UniProt P08226 19-311, limits assumed)
T1 construct: also called msApoE; ms ApoE
T1 sequence (looked up): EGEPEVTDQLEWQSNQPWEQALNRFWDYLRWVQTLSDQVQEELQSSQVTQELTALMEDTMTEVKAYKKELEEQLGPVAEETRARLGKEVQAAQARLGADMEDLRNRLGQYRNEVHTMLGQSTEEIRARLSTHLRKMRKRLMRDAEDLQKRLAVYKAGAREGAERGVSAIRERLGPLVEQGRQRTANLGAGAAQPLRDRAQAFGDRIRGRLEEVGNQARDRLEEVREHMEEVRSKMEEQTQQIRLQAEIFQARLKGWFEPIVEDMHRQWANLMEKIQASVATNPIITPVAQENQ


Assays:
Apolipoprotein E3 [1] = target: T2, Apolipoprotein E3 (human, UniProt P02649 19-317); test: pH affinity ELISA, coated hApoE3, pH 6.0
T2 construct: also called ApoE3; hApoE3
T2 sequence (P02649 19-317 limits assumed): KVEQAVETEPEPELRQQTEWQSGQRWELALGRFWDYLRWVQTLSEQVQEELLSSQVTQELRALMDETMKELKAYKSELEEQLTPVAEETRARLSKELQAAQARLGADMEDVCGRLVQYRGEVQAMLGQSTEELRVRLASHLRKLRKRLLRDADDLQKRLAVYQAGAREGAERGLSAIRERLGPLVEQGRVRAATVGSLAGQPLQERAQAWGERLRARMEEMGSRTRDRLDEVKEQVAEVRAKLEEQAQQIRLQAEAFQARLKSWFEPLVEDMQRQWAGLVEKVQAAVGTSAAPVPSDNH

Apolipoprotein E3 [2] = target: T2, Apolipoprotein E3; test: pH affinity ELISA, coated hApoE3, pH 7.4
Apolipoprotein E4 [3] = target: T3, Apolipoprotein E4 (human, UniProt P02649 19-317); test: pH affinity ELISA, coated hApoE4, pH 6.0
T3 construct: also called ApoE4; hApoE4
T3 sequence (P02649 19-317 C130R limits assumed): as the sequence (P02649 19-317 limits assumed) above, with C112R counted along it

mouse ApoE [4] = target: T1, mouse ApoE; test: pH affinity ELISA, coated mouse ApoE, pH 7.4
Apolipoprotein E3 [5] = target: T2, Apolipoprotein E3; test: pH affinity ELISA, coated hApoE3
mouse ApoE [6] = target: T1, mouse ApoE; test: pH affinity ELISA, coated mouse ApoE
Apolipoprotein E4 [7] = target: T3, Apolipoprotein E4; test: pH affinity ELISA, coated hApoE4
mouse ApoE [8] = target: T1, mouse ApoE; test: pH affinity ELISA, coated mouse ApoE, pH 6.0
Apolipoprotein E4 [9] = target: T3, Apolipoprotein E4; test: pH affinity ELISA, coated hApoE4, pH 7.4

Row | Binder | EC50 (Apolipoprotein E3 [1]) | EC50 (Apolipoprotein E3 [2]) | EC50 (Apolipoprotein E4 [3]) | EC50 (mouse ApoE [4]) | Ratio pH 7.4/6.0 (EC50) (Apolipoprotein E3 [5]) | Ratio pH 7.4/6.0 (EC50) (mouse ApoE [6]) | Ratio pH 7.4/6.0 (EC50) (Apolipoprotein E4 [7]) | EC50 (mouse ApoE [8]) | EC50 (Apolipoprotein E4 [9])
1 | Anti-ApoE wildtype antibody BAP191.01-WT (antibody, V domains shown, also called benchmark; parent) VH: QIQLVQSGPELKKPGETVKISCKASGYTFTTAGMQWVQKMPGKGFKWIGWINTHSGEPKYAEDFKGRFAFSLETSASTAYLQISNLKNEDTATYFCARMGGYAMDYWGQGTSVTVSS VL: DIKLTQSPSSMYASLGERVTITCKASEDINSYLSWFQQKPGKSPKTLIYRANRLVDGVPSRFSGSGSGQDYSLTISSLEYEDMGIYYCLQYDEFPLTFGAGTKLELT | 0.136 µg/mL | 0.0991 µg/mL | 0.0797 µg/mL | 0.089 µg/mL | 0.73 ratio | 0.96 ratio | 0.46 ratio | 0.0926 µg/mL | 0.0368 µg/mL
2 | BAP191.01-CPE-LC-P095D (antibody, V domains shown) VH: QIQLVQSGPELKKPGETVKISCKASGYTFTTAGMQWVQKMPGKGFKWIGWINTHSGEPKYAEDFKGRFAFSLETSASTAYLQISNLKNEDTATYFCARMGGYAMDYWGQGTSVTVSS VL: DIKLTQSPSSMYASLGERVTITCKASEDINSYLSWFQQKPGKSPKTLIYRANRLVDGVPSRFSGSGSGQDYSLTISSLEYEDMGIYYCLQYDEFDLTFGAGTKLELT | 0.245 µg/mL | 0.311 µg/mL | 0.0893 µg/mL | 0.244 µg/mL | 1.27 ratio | 1.67 ratio | 1.65 ratio | 0.146 µg/mL | 0.147 µg/mL
3 | BAP191.01-CPE-HC-R098E (antibody, V domains shown) VH: QIQLVQSGPELKKPGETVKISCKASGYTFTTAGMQWVQKMPGKGFKWIGWINTHSGEPKYAEDFKGRFAFSLETSASTAYLQISNLKNEDTATYFCAEMGGYAMDYWGQGTSVTVSS VL: DIKLTQSPSSMYASLGERVTITCKASEDINSYLSWFQQKPGKSPKTLIYRANRLVDGVPSRFSGSGSGQDYSLTISSLEYEDMGIYYCLQYDEFPLTFGAGTKLELT |  |  | 4.36 µg/mL | 0.413 µg/mL |  | 2.53 ratio | 4.33 ratio | 0.163 µg/mL | 18.9 µg/mL
4 | BAP191.01-CPE-HC-I051D (antibody, V domains shown, also called BAP191.01-CPE-HC-1051D) VH: QIQLVQSGPELKKPGETVKISCKASGYTFTTAGMQWVQKMPGKGFKWIGWDNTHSGEPKYAEDFKGRFAFSLETSASTAYLQISNLKNEDTATYFCARMGGYAMDYWGQGTSVTVSS VL: DIKLTQSPSSMYASLGERVTITCKASEDINSYLSWFQQKPGKSPKTLIYRANRLVDGVPSRFSGSGSGQDYSLTISSLEYEDMGIYYCLQYDEFPLTFGAGTKLELT |  |  | 1.54 µg/mL | 0.39 µg/mL |  | 3.76 ratio | 3.07 ratio | 0.104 µg/mL | 4.75 µg/mL
5 | BAP191.01-CPE-LC-Y091D (antibody, V domains shown) VH: QIQLVQSGPELKKPGETVKISCKASGYTFTTAGMQWVQKMPGKGFKWIGWINTHSGEPKYAEDFKGRFAFSLETSASTAYLQISNLKNEDTATYFCARMGGYAMDYWGQGTSVTVSS VL: DIKLTQSPSSMYASLGERVTITCKASEDINSYLSWFQQKPGKSPKTLIYRANRLVDGVPSRFSGSGSGQDYSLTISSLEYEDMGIYYCLQDDEFPLTFGAGTKLELT |  |  | 0.084 µg/mL |  |  |  | 1.79 ratio |  | 0.15 µg/mL

The next lines start with the values.

Row | EC50 (Apolipoprotein E3 [1]) | EC50 (Apolipoprotein E3 [2]) | EC50 (Apolipoprotein E4 [3]) | EC50 (mouse ApoE [4]) | Ratio pH 7.4/6.0 (EC50) (Apolipoprotein E3 [5]) | Ratio pH 7.4/6.0 (EC50) (mouse ApoE [6]) | Ratio pH 7.4/6.0 (EC50) (Apolipoprotein E4 [7]) | EC50 (mouse ApoE [8]) | EC50 (Apolipoprotein E4 [9]) | Binder
6 |  |  | 2.93 µg/mL | 1.58 µg/mL |  | 2.75 ratio | 2350 ratio | 0.573 µg/mL | 6890 µg/mL | BAP191.01-CPE-HC-M099E (antibody, V domains shown) VH: QIQLVQSGPELKKPGETVKISCKASGYTFTTAGMQWVQKMPGKGFKWIGWINTHSGEPKYAEDFKGRFAFSLETSASTAYLQISNLKNEDTATYFCAREGGYAMDYWGQGTSVTVSS VL: DIKLTQSPSSMYASLGERVTITCKASEDINSYLSWFQQKPGKSPKTLIYRANRLVDGVPSRFSGSGSGQDYSLTISSLEYEDMGIYYCLQYDEFPLTFGAGTKLELT
7 |  |  | 0.685 µg/mL | 0.389 µg/mL |  | 3.71 ratio | 3.01 ratio | 0.105 µg/mL | 2.06 µg/mL | BAP191-01-CPE-HC-M034D (antibody, V domains shown) VH: QIQLVQSGPELKKPGETVKISCKASGYTFTTAGDQWVQKMPGKGFKWIGWINTHSGEPKYAEDFKGRFAFSLETSASTAYLQISNLKNEDTATYFCARMGGYAMDYWGQGTSVTVSS VL: DIKLTQSPSSMYASLGERVTITCKASEDINSYLSWFQQKPGKSPKTLIYRANRLVDGVPSRFSGSGSGQDYSLTISSLEYEDMGIYYCLQYDEFPLTFGAGTKLELT
8 | 3.13 µg/mL | 9.25 µg/mL | 4.2 µg/mL | 2.45 µg/mL | 2.95 ratio | 2.25 ratio | 18400 ratio | 1.09 µg/mL | 68700 µg/mL | BAP191.01-CPE-HC-M104E (antibody, V domains shown) VH: QIQLVQSGPELKKPGETVKISCKASGYTFTTAGMQWVQKMPGKGFKWIGWINTHSGEPKYAEDFKGRFAFSLETSASTAYLQISNLKNEDTATYFCARMGGYAEDYWGQGTSVTVSS VL: DIKLTQSPSSMYASLGERVTITCKASEDINSYLSWFQQKPGKSPKTLIYRANRLVDGVPSRFSGSGSGQDYSLTISSLEYEDMGIYYCLQYDEFPLTFGAGTKLELT
